For 6 molecules, Kd results are on record in PMC10284121 (2023).

For orientation: Kd means the constant that tells how readily two partners part at equilibrium. Higher therefore signals weaker binding.

In the experiment the target is Pin1 phosphopeptide (fluorescein-labelled) (Homo sapiens, UniProt Q13526). The experiment in a line: fluorescence anisotropy. (In fluorescence polarisation assays a small probe gives low polarisation when free and higher when bound to something large.)
Sequence of Pin1 phosphopeptide (fluorescein-labelled) (Q13526 whole entry): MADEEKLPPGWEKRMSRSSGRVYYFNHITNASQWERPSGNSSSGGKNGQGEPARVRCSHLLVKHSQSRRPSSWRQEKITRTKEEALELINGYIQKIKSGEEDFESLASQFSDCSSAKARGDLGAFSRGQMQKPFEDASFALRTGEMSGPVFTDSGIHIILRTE

B1: 14-3-3γ (protein)
chain: VDREQLVQKARLAEQAERYDDMAAAMKNVTELNEPLSNEERNLLSVAYKNVVGARRSSWRVISSIEQKTSADGNEKKIEMVRAYREKIEKELEAVCQDVLSLLDNYLIKNCSETQYESKVFYLKMKGDYYRYLAEVATGEKRATVVESSEKAYSEAHEISKEHMQPTHPIRLGLALNYSVFYYEIQNAPEQACHLAKTAFDDAIAELDTLNEDSYKDSTLIMQLLRDNLTLWTSDQQDDDGGEGNN
modifications: phosphopeptide, fluorescein label, MG1 present (2-3 h)
For the molecule B1, binding was characterised by a dissociation constant (Kd) of 1.5 µM. That is a single-digit micromolar value.

B2: 14-3-3γ (protein)
chain: B1 chain
modifications: phosphopeptide, fluorescein label, MG1 present (10 min)
B2: the affinity, expressed as Kd, was 5.4 µM. Compared with the last molecule, the Kd is about 3.6-fold higher.

B3: 14-3-3γ (protein)
chain: B1 chain
modifications: phosphopeptide, fluorescein label, MG1 present, pH 6.5
In the case of B3, the Kd was ~5.2 µM.

B4: 14-3-3γ (protein)
chain: B1 chain
modifications: phosphopeptide, fluorescein label
Turning to B4, the affinity, expressed as Kd, was 30 µM. This lies in the double-digit micromolar range.

B5: 14-3-3γ (protein)
chain: B1 chain
modifications: phosphopeptide, fluorescein label, MG1 present, pH 8.0
As to B5, the dissociation constant Kd was ~0.6 µM.

B6: 14-3-3γ (protein)
chain: B1 chain
modifications: phosphopeptide, fluorescein label, fusicoccin-A present
In turn, B6 registered a Kd of 2.9 µM.
